B1: full-length AREB1: full-length Arabidopsis thaliana AREB1 protein (SEQ ID NO: 2), expressed from full-length cDNA under 35S promoter (protein, listed as Arabidopsis thaliana)
chain: MDGSMNLGNEPPGDGGGGGGLTRQGSIYSLTFDEFQSSVGKDFGSMNMDELLKNIWSAEETQAMASGVVPVLGGGQEGLQLQRQGSLTLPRTLSQKTVDQVWKDLSKVGSSGVGGSNLSQVAQAQSQSQSQRQQTLGEVTLEEFLVRAGVVREEAQVAARAQIAENNKGGYFGNDANTGFSVEFQQPSPRVVAAGVMGNLGAETANSLQVQGSSLPLNVNGARTTYQQSQQQQPIMPKQPGFGYGTQMGQLNSPGIRGGGLVGLGDQSLTNNVGFVQGASAAIPGALGVGAVSPVTPLSSEGIGKSNGDSSSLSPSPYMFNGGVRGRKSGTVEKVVERRQRRMIKNRESAARSRARKQAYTVELEAEVAKLKEENDELQRKQARIMEMQKNQETEMRNLLQGGPKKKLRRTESGPW

Key:
[1] = test system: RD29B gene; test: RNA gel blot (Northern) analysis of downstream gene RD29B in transformed plants; format: in vivo, Arabidopsis thaliana
Procedure: Extraction of total RNA from plant bodies and RNA gel blot analysis using the total RNA were performed according to the method of Satoh et al (2004, Plant Cell Physiol. 45, 309-317) using a Shakemaster crusher (Bio Medical Science, Tokyo, Japan). Furthermore, probes for RNA gel blot analysis were prepared according to the method of Maruyama et al (2004, Plant J. 38, 982-993).
To prepare a pBE2113Not-AREB1 plasmid, the entire coding region of AREB1 was amplified by PCR using a primer with a Not I linker and then the resultant was introduced into pBE2113Not (Liu et al., 1998, Plant Cell 10, 1391-1406) in the sense orientation. pBE2113Not-AREB1ΔQT was prepared by amplifying the coding region of AREB1ΔQT by PCR using primers with Xba I and BamH I linkers and then introducing the resultant into the Xba I/BamH I site of pBE2113Not in the sense orientation.
To produce transformed plants with 35S-AREB1 and 35S-AREB1ΔQT, transformation vectors, pBE2113Not-AREB1 and pBE2113Not-AREB1ΔQT, were introduced into Arabidopsis thaliana (Columbia) by a suction-infiltration method (Osakabe et al., 2005, Plant Cell 17, 1105-1119) using the Agrobacterium tumefaciens C58 strain.
Here, it was examined whether or not overexpression of ABRE1ΔQT in Arabidopsis thaliana would activate the transcription of a downstream gene such as RD29B in the absence of external ABA. […]

[2] = test system: RD29B-GUS reporter gene; test: Transient expression (transactivation) analysis with RD29B-GUS reporter in protoplasts of Arabidopsis thaliana T87 cells; format: cell-based; settings: in the presence of 50 μM abscisic acid (ABA)
Procedure: Analysis of transient expression was performed using protoplasts derived from Arabidopsis thaliana T87 cells according to a slightly modified version of the method of Fujita et al (2004, Plant J. 39, 863-876) and the method of Satoh et al (2004, Plant Cell Physiol. 45, 309-317). Protoplast isolation and gene introduction were all performed at room temperature (25° C. to 28° C.). Protoplasts in which the gene had been introduced were allowed to stand for 16 to 20 hours at 22° C. in the dark. An enzyme solution [0.4 M mannitol, 1.5% (w/v) cellulase “Onozuka” R-10 (Yakult, Tokyo, Japan), 0.3% (w/v) macerozyme R-10 (Yakult), 0.1% (w/v) bovine serum albumin, 10 mM CaCl2, 20 mM KCl, and 20 mM MES, pH 5.7] was prepared according to the method of Sheen (2002) (http://genetics.mgh.harvard.edu/sheenweb/).
A DNA fragment containing a portion or the whole of AREB1 cDNA was amplified by PCR and then the product was cloned into the Not I site of an expression vector pBI35SΩ (Abe et al., 1997, Plant Cell 9, 1859-1868). Thus, a plasmid having an AREB1 bZIP DNA binding domain was prepared. The plasmid was then used for an experiment for the analysis of transient expression. To remove a 640-base-pair fragment that was partially cleaved with EcoT14I from the pBI35SΩ-AREB1 plasmid, self-binding ligase reaction was performed after partial cleavage with EcoT14I. […]

Molecule | expression of the downstream gene RD29B (Northern analysis) ([1]; wild-type (WT) and vector control plants, 50 μM ABA, 7 hours) | GUS activity (RD29B-GUS reporter) [2] | expression of the downstream RD29B gene (Northern analysis) ([1]; 2-week-old seedlings of transformed plants, in the absence of ABA)
CC1=CC(=O)CC(C)(C)[C@@]1(O)/C=C/C(C)=C\C(=O)O [ABA, abscisic acid, reference compound] | could be confirmed only in the presence of 50 μM ABA |  | 
B1 |  | significant enhancement in GUS activity | not observed

Source: patent US20090089899A1, “Method for Enhancing Drought Stress Tolerance in Plants by Active AREB1” (priority 2005, published 2009)
